The record followed here is patent US20030170807A1 (Johns Hopkins, published 2003).

Assay [1] addresses mGluR of mouse cerebellar Purkinje cells (mouse) (UniProt P97772). The experiment in a line: cell-based or functional assay.
In assay [2] the target is T1, GKAP 1, native, from rat brain extracts (rat, UniProt P97836 1-992).
T1 construct: mature
T1 sequence (looked up): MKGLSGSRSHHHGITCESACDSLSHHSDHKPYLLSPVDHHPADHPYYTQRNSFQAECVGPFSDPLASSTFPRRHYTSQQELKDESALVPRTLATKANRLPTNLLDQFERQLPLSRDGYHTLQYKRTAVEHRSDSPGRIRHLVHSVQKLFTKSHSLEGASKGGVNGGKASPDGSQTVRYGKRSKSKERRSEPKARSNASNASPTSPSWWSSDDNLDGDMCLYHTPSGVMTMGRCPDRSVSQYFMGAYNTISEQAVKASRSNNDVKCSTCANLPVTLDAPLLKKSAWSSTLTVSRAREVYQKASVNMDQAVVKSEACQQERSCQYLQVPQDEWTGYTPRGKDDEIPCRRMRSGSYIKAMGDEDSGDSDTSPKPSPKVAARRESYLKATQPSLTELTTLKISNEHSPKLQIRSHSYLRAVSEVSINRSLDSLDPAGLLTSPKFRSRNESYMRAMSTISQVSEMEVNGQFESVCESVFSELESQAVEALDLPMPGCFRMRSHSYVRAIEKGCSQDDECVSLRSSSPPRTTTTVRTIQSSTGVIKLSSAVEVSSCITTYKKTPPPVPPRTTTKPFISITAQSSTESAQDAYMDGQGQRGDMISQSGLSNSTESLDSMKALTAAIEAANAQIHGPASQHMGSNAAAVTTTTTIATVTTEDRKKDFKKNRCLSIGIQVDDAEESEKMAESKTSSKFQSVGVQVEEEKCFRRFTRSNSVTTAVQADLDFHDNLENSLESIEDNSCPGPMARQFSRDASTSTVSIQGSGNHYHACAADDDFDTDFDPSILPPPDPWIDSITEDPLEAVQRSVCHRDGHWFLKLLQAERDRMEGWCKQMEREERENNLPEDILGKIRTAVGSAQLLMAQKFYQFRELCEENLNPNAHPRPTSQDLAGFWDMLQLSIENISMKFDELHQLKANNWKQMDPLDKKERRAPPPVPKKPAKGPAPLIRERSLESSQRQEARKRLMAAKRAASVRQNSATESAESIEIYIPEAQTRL
The experiment in a line: GST pull-down from rat brain extracts.

Chain of mGluR of mouse cerebellar Purkinje cells (mouse) (P97772 21-1199): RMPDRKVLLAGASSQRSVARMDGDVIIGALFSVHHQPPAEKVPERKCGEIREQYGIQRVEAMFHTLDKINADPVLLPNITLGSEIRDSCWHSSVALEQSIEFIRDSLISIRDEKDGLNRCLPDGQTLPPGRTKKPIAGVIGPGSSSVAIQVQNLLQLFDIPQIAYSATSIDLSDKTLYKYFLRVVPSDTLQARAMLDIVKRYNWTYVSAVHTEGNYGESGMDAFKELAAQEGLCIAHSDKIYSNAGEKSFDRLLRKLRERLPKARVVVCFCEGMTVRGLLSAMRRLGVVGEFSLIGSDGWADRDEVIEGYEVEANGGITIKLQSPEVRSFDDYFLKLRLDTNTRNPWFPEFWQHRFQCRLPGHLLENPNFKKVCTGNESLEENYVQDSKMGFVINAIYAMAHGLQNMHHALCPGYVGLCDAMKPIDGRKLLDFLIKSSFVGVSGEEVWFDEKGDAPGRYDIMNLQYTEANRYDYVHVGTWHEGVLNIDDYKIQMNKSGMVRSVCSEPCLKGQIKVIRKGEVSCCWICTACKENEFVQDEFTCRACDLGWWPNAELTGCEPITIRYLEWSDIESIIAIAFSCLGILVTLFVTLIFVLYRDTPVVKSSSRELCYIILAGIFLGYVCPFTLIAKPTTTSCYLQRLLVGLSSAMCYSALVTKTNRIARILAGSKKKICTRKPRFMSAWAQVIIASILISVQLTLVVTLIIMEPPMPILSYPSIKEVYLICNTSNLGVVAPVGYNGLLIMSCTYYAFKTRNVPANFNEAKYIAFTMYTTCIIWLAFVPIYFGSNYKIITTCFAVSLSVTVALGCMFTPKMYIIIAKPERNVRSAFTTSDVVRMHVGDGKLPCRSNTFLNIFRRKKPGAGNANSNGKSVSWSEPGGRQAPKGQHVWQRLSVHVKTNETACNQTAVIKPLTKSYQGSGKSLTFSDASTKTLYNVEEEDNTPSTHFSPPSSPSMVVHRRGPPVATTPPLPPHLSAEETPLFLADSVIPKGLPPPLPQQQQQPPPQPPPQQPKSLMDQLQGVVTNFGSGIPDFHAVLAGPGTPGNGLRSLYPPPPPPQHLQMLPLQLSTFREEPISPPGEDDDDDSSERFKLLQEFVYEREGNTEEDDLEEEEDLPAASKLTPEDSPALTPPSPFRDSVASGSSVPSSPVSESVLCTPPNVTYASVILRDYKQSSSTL

In assay [1], “IEG form of Homer 1: 186 amino acid amino-terminal fragment of Homer 1b (pRK5 Homer 1 IEG) (from UniProt Q9Z2Y3 1-198)” yielded a mGluR-evoked Ca+2 response, amplitude of 170 nM and a mGluR-evoked Ca+2 response, latency of 10.5 s.

B1: GST-GKAP(carboxy-terminal): carboxy-terminal 76 amino acids of GKAP1a fused to GST (other, UniProt P97836-5 591-666, looked up)
chain: MDPLDKKERRAPPPVPKKPAKGPAPLIRERSLESSQRQEARKRLMAAKRAASVRQNSATESAESIEIYIPEAQTRL
notes: domain: carboxy-terminal 76 amino acids; not shown: glutathione-S-transferase, fusion partner
For B1, the binding result in assay [2] is given as “no binding”.
